Measured values: PMC8385403

Key:
Rod-B = experiment: co-sedimentation; filament disassembly assay without His-Aurora-B; Rod-B proteins in kinase buffer (20 mM Tris pH 7.5, 10 mM MgCl2, 1 mM DTT, 50 μM ATP), 60 min at 30 °C, then high-speed centrifugation; filaments to nonfilamentous fraction
His-survivin [1] = target: His-survivin (UniProt O15392); experiment: pull-down (quantification of Coomassie-stained SDS-PAGE); conditions: mean ± SEM of three independent experiments; parent: est. 1.0; read off a plot
[2] = target: Rod-B phosphorylated by His-Aurora-B; experiment: co-sedimentation; filament disassembly assay with His-Aurora-B; Rod-B proteins with recombinant His-Aurora-B in kinase buffer (20 mM Tris pH 7.5, 10 mM MgCl2, 1 mM DTT, 50 μM ATP), 60 min at 30 °C, then high-speed centrifugation; filaments to nonfilamentous fraction
Rod-B^T1847A [3] = experiment: as above
Rod-B^T1847A [4] = experiment: co-sedimentation; filament disassembly assay without His-Aurora-B; Rod-B proteins in kinase buffer (20 mM Tris pH 7.5, 10 mM MgCl2, 1 mM DTT, 50 μM ATP), 60 min at 30 °C, then high-speed centrifugation; filaments to nonfilamentous fraction
His-survivin [5] = target: His-survivin (UniProt O15392); experiment: pull-down; direct pull-down; His-survivin proteins (40-45 μg) held on Ni2+-NTA beads, Rod-B proteins (40-45 μg) added; Buffer B: 20 mM Tris-HCl pH 8, 275 mM NaCl, 5% glycerol, 1% NP-40, 30 mM imidazole; 4 °C; eluted with 250 mM imidazole; Coomassie-stained SDS-PAGE

Chain of Rod-B phosphorylated by His-Aurora-B (P35580 whole entry): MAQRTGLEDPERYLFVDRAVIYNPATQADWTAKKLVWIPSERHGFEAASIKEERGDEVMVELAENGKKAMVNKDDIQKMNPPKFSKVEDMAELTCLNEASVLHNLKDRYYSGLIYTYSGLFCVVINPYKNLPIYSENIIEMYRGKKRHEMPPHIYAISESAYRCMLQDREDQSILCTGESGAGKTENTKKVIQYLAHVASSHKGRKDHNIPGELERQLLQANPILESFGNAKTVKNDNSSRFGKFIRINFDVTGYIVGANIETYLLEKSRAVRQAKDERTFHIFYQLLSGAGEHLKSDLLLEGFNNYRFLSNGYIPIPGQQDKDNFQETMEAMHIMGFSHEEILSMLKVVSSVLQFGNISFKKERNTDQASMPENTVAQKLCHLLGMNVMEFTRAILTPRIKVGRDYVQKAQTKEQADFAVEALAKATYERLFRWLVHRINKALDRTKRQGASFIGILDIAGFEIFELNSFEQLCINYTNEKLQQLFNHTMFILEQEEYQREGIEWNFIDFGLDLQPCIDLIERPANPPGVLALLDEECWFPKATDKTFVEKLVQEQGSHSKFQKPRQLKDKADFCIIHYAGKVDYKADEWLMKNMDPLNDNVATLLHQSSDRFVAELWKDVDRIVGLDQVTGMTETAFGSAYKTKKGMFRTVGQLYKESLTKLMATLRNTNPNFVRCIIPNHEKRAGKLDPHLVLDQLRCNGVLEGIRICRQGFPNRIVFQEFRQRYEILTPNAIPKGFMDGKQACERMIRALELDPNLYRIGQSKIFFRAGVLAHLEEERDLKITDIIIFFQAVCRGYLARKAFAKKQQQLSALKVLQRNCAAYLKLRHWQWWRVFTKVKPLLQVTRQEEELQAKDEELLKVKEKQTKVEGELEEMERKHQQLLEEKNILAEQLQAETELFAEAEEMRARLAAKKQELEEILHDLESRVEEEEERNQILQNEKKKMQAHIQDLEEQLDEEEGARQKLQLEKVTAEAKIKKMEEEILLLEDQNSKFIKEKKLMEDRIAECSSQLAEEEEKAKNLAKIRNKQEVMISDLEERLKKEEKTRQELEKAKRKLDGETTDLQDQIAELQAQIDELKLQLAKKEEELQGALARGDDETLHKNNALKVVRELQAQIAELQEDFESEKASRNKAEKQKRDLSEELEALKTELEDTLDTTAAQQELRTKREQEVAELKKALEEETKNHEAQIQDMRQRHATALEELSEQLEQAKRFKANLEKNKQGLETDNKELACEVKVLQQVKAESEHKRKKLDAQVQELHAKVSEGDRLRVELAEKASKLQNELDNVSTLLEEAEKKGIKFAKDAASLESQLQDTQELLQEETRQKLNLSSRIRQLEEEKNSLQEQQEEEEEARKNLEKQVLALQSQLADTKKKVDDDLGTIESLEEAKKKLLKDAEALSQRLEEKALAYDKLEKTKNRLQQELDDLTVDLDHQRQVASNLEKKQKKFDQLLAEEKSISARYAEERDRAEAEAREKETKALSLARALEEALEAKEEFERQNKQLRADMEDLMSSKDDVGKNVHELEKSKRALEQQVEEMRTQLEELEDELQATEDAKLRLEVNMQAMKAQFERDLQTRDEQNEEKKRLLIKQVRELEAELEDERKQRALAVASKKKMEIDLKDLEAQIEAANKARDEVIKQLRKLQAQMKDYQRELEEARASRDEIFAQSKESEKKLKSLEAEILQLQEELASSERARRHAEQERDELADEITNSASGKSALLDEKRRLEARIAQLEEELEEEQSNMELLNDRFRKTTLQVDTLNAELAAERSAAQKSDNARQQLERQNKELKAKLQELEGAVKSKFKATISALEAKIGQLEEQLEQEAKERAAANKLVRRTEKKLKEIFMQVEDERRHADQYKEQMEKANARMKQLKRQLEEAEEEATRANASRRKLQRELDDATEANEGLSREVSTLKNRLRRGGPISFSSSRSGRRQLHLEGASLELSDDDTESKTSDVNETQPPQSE
Chain of Rod-B (P35580 whole entry): as above

In the case of Rod-B (domain or fragment), the percent in the nonfilamentous fraction (Rod-B) was 28%.
With Rod-B T1847A the ratio to parent (His-survivin [1]) was 1.1.
“Rod-B phosphorylated by His-Aurora-B (domain or fragment)” was tested, and the percent in the nonfilamentous fraction [2] was 42%.
Work on Rod-B^T1847A (domain or fragment) yielded a percent in the nonfilamentous fraction (Rod-B^T1847A [3]) of 36.8% and a percent in the nonfilamentous fraction (Rod-B^T1847A [4]) of 34%.
Rod-B^T1847D (domain or fragment) was tested, and the percent reduction of binding to survivin relative to Rod-B (His-survivin [5]) was 80%.
